The target of experiment [1] is T1, 人DLL3蛋白(His标签) (human, UniProt Q9NYJ7 27-479).
T1 construct: Bought protein (ACRO); also called 重组人DLL3; human DLL3 protein (His tag); not shown: His tag
T1 sequence (looked up): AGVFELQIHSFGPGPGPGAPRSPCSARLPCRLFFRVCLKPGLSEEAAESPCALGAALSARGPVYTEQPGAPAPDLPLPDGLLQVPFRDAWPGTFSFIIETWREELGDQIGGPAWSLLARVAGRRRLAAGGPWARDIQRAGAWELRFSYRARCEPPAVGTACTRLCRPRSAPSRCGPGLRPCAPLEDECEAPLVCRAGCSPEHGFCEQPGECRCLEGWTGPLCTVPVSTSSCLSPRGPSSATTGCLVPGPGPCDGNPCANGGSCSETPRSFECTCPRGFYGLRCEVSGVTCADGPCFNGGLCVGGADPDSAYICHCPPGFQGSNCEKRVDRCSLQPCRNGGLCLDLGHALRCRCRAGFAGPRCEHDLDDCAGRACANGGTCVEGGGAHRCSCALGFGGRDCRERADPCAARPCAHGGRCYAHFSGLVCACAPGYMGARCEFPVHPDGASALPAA
Briefly: ELISA, coated human DLL3 protein.

Experiment [2] concerns the target T2, 人CD3蛋白 (human).
T2 chain: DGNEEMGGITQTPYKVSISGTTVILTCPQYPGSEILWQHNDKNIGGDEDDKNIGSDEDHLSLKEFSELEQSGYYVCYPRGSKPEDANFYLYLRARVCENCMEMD
Briefly: ELISA, coated human CD3 protein.

The target of experiment [3] is T3, 细胞表面表达的DLL3 (H82 and LS174T-DLL3 cells) (human, UniProt Q9NYJ7 27-618).
T3 sequence (looked up): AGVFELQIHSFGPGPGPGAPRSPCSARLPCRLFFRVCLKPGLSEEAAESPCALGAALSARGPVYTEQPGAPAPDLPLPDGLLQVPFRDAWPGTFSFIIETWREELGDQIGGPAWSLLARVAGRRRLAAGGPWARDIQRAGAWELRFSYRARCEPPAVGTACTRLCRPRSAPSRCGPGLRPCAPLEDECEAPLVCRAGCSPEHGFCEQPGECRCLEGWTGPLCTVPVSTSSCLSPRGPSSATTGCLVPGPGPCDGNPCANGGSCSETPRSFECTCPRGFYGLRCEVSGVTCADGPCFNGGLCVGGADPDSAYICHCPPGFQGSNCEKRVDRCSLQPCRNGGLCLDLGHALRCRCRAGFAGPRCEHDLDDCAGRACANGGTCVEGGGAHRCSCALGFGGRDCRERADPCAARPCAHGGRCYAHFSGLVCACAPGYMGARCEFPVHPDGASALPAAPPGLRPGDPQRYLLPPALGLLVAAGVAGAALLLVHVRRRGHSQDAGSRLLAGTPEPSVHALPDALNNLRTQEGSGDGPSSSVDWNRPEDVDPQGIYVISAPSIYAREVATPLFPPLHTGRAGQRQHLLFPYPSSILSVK
Briefly: cell-based or functional assay.

Experiment [4] addresses T4, 效应细胞的CD3抗原 (CD3 on Jurkat-NFAT-CD3 cells and human T cells) (human).
T4 chain: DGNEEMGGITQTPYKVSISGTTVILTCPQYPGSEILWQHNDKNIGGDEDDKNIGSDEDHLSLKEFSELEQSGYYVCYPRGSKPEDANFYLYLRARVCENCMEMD
Briefly: cell-based or functional assay.

The target in experiment [5] is T1, 人DLL3蛋白(His标签). The experiment can be described thus: ELISA, coated human DLL3 protein 100 ng per well, anti-Fc HRP detection.

B1: DLL3-1G2H1L1-M6MV1-1 (bispecific antibody, human IgG1, kappa)
light: QVQLVQSGAELKKPGASVKLSCKASGYSFTSYWMNWVRQAPGQGLEWMGMIHPSDSETRLNQKFKDRVTLTVDKSSSTAYMELSSLTSEDTAVYYCARWDYYDYAWFAYWGQGTLVTVSSGGGGSGGGGSGGGGSDVVMTQTPLSLPVTLGQPASISCRSSQSIVHSNGDTYLEWYLQKPGQSPQLLIYKVSNRFSGVPDRFSGSGSGTDFTLKISRVEAEDVGVYYCFQGSHVPWTFGQGTKVEIKGSGGGGSGGGGSEIVVTQSPATLSVSPGERATLSCRSSTGAVTTSNYANWVQQKPGQAPRGLIGGANKRAPGVPARFSGSLSGDEATLTISSLQSEDFAVYYCALWYSNLWVFGQGTKLEIKRTVAAPSVFIFPPSDEQLKSGTASVVCLLNNFYPREAKVQWKVDNALQSGNSQESVTEQDSKDSTYSLSSTLTLSKADYEKHKVYACEVTHQGLSSPVTKSFNRGECGGSGSCPPCPAPEAAGAPSVFLFPPKPKDTLMISRTPEVTCVVVDVSHEDPEVKFNWYVDGVEVHNAKTKPREEQYNSTYRVVSVLTVLHQDWLNGKEYKCKVSNKALGAPIEKTISKAKGQPREPQVYTLPPSRDELTKNQVSLLCLVKGFYPSDIAVEWESNGQPENNYKTTPPVLDSDGSFFLHSKLTVDKSRWQQGNVFSCSVMHEALHNHYTQKSLSLSPG
heavy: EVQLVESGGGLVQPGGSLRLSCAASGFTFNTYAMNWVRQAPGKGLEWVARIRSKYNNYATYYADSVKGRFTISRDDSKNTLYLQMNSLRAEDTAVYYCARHGNFGSSYVSYFAYWGQGTTVTVSSASTKGPSVFPLAPSSKSTSGGTAALGCLVKDYFPEPVTVSWNSGALTSGVHTFPAVLQSSGLYSLSSVVTVPSSSLGTQTYICNVNHKPSNTKVDKKVEPKSCDKTHTCPPCPAPEAAGAPSVFLFPPKPKDTLMISRTPEVTCVVVDVSHEDPEVKFNWYVDGVEVHNAKTKPREEQYNSTYRVVSVLTVLHQDWLNGKEYKCKVSNKALGAPIEKTISKAKGQPREPQVYTLPPSRDELTKNQVSLLCLVKGFYPSDIAVEWESNGQPENNYKTTPPVLDSDGSFFLHSKLTVDKSRWQQGNVFSCSVMHEALHNHYTQKSLSLSPG
notes: also called DLL3×CD3 BiTE
In experiment [1], B1 gave an EC50 of 0.378 µg/mL. Moreover, the 50% effective concentration (EC50) in experiment [2] came out at 1.45 µg/mL. In addition, in experiment [3], the “CTL EC50 (T cell dependent cytotoxicity on LS174T-DLL3 cells, human T cells, CCK8)” value (from here on “CTL EC50”) turned out to be 0.305 µg/mL; the “T cell activation (Jurkat-NFAT-CD3 luciferase reporter) with H82 target cells, EC50” value (“T cell activation … with H82 target cells, EC50” for short) is approximately 4.02 µg/mL; the “T cell activation (Jurkat-NFAT-CD3 luciferase reporter) with LS174T-DLL3 target cells, EC50” value is approximately 5.47 µg/mL. Also, in experiment [4], the “CTL EC50” value is 0.305 µg/mL; the “T cell activation … with H82 target cells, EC50” value was approximately 4.02 µg/mL; the “T cell activation (Jurkat-NFAT-CD3 luciferase reporter) with LS174T-DLL3 target cells, EC50” value is approximately 5.47 µg/mL.

B2: DLL3-1G2H2L1-M6MV1-1 (bispecific antibody, human IgG1, kappa)
light: QVQLVQSGAELKRPGASVKLSCKASGYSFTSYWMNWVRQAPGQGLEWIGMIHPSDSETRLNQKFKDKATLTVDKSSSTAYMELSSLTSEDSAVYYCARWDYYDYAWFAYWGQGTLVTVSSGGGGSGGGGSGGGGSDVVMTQTPLSLPVTLGQPASISCRSSQSIVHSNGDTYLEWYLQKPGQSPQLLIYKVSNRFSGVPDRFSGSGSGTDFTLKISRVEAEDVGVYYCFQGSHVPWTFGQGTKVEIKGSGGGGSGGGGSEIVVTQSPATLSVSPGERATLSCRSSTGAVTTSNYANWVQQKPGQAPRGLIGGANKRAPGVPARFSGSLSGDEATLTISSLQSEDFAVYYCALWYSNLWVFGQGTKLEIKRTVAAPSVFIFPPSDEQLKSGTASVVCLLNNFYPREAKVQWKVDNALQSGNSQESVTEQDSKDSTYSLSSTLTLSKADYEKHKVYACEVTHQGLSSPVTKSFNRGECGGSGSCPPCPAPEAAGAPSVFLFPPKPKDTLMISRTPEVTCVVVDVSHEDPEVKFNWYVDGVEVHNAKTKPREEQYNSTYRVVSVLTVLHQDWLNGKEYKCKVSNKALGAPIEKTISKAKGQPREPQVYTLPPSRDELTKNQVSLLCLVKGFYPSDIAVEWESNGQPENNYKTTPPVLDSDGSFFLHSKLTVDKSRWQQGNVFSCSVMHEALHNHYTQKSLSLSPG
heavy: EVQLVESGGGLVQPGGSLRLSCAASGFTFNTYAMNWVRQAPGKGLEWVARIRSKYNNYATYYADSVKGRFTISRDDSKNTLYLQMNSLRAEDTAVYYCARHGNFGSSYVSYFAYWGQGTTVTVSSASTKGPSVFPLAPSSKSTSGGTAALGCLVKDYFPEPVTVSWNSGALTSGVHTFPAVLQSSGLYSLSSVVTVPSSSLGTQTYICNVNHKPSNTKVDKKVEPKSCDKTHTCPPCPAPEAAGAPSVFLFPPKPKDTLMISRTPEVTCVVVDVSHEDPEVKFNWYVDGVEVHNAKTKPREEQYNSTYRVVSVLTVLHQDWLNGKEYKCKVSNKALGAPIEKTISKAKGQPREPQVYTLPPSRDELTKNQVSLLCLVKGFYPSDIAVEWESNGQPENNYKTTPPVLDSDGSFFLHSKLTVDKSRWQQGNVFSCSVMHEALHNHYTQKSLSLSPG
notes: also called DLL3×CD3 BiTE
For the molecule B2, the EC50 came to 0.267 µg/mL in experiment [1] and 0.892 µg/mL in experiment [2]. Besides, the “CTL EC50” value in experiment [3] and in experiment [4] was 0.104 µg/mL each time. The “T cell activation … with H82 target cells, EC50” value in experiment [3] and in experiment [4] was approximately 1.97 µg/mL each time. Also, the “T cell activation (Jurkat-NFAT-CD3 luciferase reporter) with LS174T-DLL3 target cells, EC50” value in experiment [3] and in experiment [4] was approximately 2.7 µg/mL each time.

B3: DLL3-1G2 mAb (antibody, human IgG1, kappa, V domains shown)
VH: QVQLQQPGAELVRPGASVKLSCKASGYSFTSYWMNWVKQRPGQGLEWIGMIHPSDSETRLNQKFKDKATLTVDKSSSTAYMQLSSPTSEDSAVYYCARWDYYDYAWFAYWGQGTLVTVSA
VL: DVLMTQTPLSLPVSLGDQASISCRSSQSIVHSNGDTYLEWYLQKPGQSPNLLIYKVSNRFSGVPDRFSGSGSGTDFTLKISRVEAEDLGVYHCFQGSHVPWTFGGGTKLEIKR
notes: Chimeric full IgG1: Fab of murine clone 1G2 fused to human IgG1 Fc; also called 抗DLL3单克隆抗体
For B3, the concentration giving a half-maximal response (EC50) in experiment [5] came out at 0.0295 µg/mL.

The values above are taken from patent CN116789836A (ZHEJIANG SHIMAI PHARMACEUTICAL CO LTD, dated 2023).
